How the values were obtained:
[1] = Hepatotoxicity and nephrotoxicity markers (AST, ALT, BUN) in COLO205 tumor-bearing mice; conditions: final day of observation
Description: As a comparison group, a group (oxaliplatin administration group) was set by administering 33 μL of oxaliplatin into the tail vein at a dose of 5 mg/mL 3 times every other week. […] Each group contained 6 mice, and observation of general condition and measurement of the body weight and tumor volume were performed until the end of the observation period. In the Figure, the vertical axis indicates mean tumor volume of each group, and the horizontal axis indicates the number of days elapsed since administration of each medicament. […] On the final day of observation, the mice were autopsied, and the blood was collected. The collected blood was analyzed by a dry chemistry analyzer (SPOTCHEM D-02, manufactured by ARKRAY, Inc.) by measuring aspartate aminotransferase (AST), alanine aminotransferase (ALT), and blood urea nitrogen (BUN) in plasma by using SPOTCHEM D Total-A2 (manufactured by ARKRAY, Inc.), and hepatotoxicity and nephrotoxicity were evaluated.

[2] = tested on: tumor derived from COLO205 cells; test: Accumulation in tumor, PET imaging in COLO205 tumor-bearing mice; type: in vivo, mouse
Description: COLO205 cells of EGFR high expression human colorectal cancer-derived cell line purchased from ATCC were suspended in DMEM medium and administered subcutaneously to the flanks of 5-week-old female BALB/c nu/nu (Charles River Laboratories Japan, Inc.) at 5×10^6 cells to prepare tumor-bearing mice. The tumor volume was allowed to grow to about 100 to 250 mm^3, and the radioconjugate produced as described in Example 7 was administered at a dose of about 6 MBq/mouse (each n=3) into the tail vein. After 72 hr and 120 hr from the administration, images were taken using a small animal PET imaging device under conditions similar to those in Evaluation 2.
The arrow in the image indicates a tumor derived from COLO205 cells used for tumor-bearing. When VOI was set for the tumor and muscle (femoral muscle) in each imaged mouse and the SUV (Standard Uptake Value) was calculated, the value was 3.18±0.72 for tumor and 0.48±0.02 for muscle at 72 hr after administration and 4.38±0.96 for tumor and 0.48±0.05 for muscle at 120 hr after administration. Using the values, the radioactivity accumulation ratio of tumor to muscle was calculated. As a result, the ratio was 6.67±1.52 at 72 hr after administration and 9.19±2.02 at 120 hr after administration, and a higher level of radioactivity was accumulated in the tumor as compared with other organs and EGFR positive tumor could be depicted.

[3] = tested on: COLO205 cells, HCT-116 cells, SW48 cells, MIAPaCa-2 cells, NCI-H358 cells; test: Cytotoxic effect on cultured cells, overall statement; type: cell-based, human; conditions: 120 hours; up to maximum concentration added (antibody concentration 156 nM)
Description: In addition, unlabeled panitumumab was added to an antibody concentration the same as that of the sample at each radioactivity concentration, and the cells were cultured. After 120 hours from the sample addition, CellTiter-Glo (registered trademark) 2.0 Cell Viability Assay (manufactured by Promega) was added to the medium, chemiluminescence was detected using a microplate reader (SpectraMax i3x, manufactured by Molecular Devices, LLC), and the number of viable cells was calculated. The ratio of the number of viable cells under conditions where no antibody was added to the calculated number of viable cells was taken, and the cytotoxic effect was evaluated. Furthermore, the obtained results were fitted by a […] regression method using GraphPad Prism 7 (manufactured by GraphPad Software), and EC50 was calculated.

[4] = tested on: SW48 cells and COLO205 cells; test: Apoptosis induction, Caspase-Glo 3/7 Assay; type: cell-based, human; conditions: 72 hours, both cells
Description: In addition, unlabeled panitumumab was added to an antibody concentration the same as that of the group at each radioactivity concentration, and the cells were cultured. After 72 hours from the sample addition, an apoptosis assay kit (Caspase-Glo (registered trademark) 3/7 Assay, manufactured by Promega) was added, and Caspase-3/7 activity was detected using a microplate reader.

O=C1[O][Pt]2([NH][C@@H]3CCCC[C@H]3[NH]2)[O]C1=O [oxaliplatin, reference compound]
hepatotoxicity and nephrotoxicity (AST, ALT, BUN in plasma) [1]: no hepatotoxicity or nephrotoxicity was confirmed

Example 7: Complex with panitumumab using 89Zr-labeled DOTAGA-DBCO
SUV (Standard Uptake Value), muscle (femoral muscle) ([2]; 72 hr after administration): 0.48±0.02
SUV (Standard Uptake Value), muscle (femoral muscle) ([2]; 120 hr after administration): 0.48±0.05
SUV (Standard Uptake Value), tumor ([2]; 120 hr after administration): 4.38±0.96
SUV (Standard Uptake Value), tumor ([2]; about 6 MBq/mouse tail vein, 72 hr after administration): 3.18±0.72

panitumumab [unlabeled panitumumab, reference compound]
cytotoxic effect [3]: no cytotoxic effect was confirmed
apoptosis induction (Caspase-3/7 activity) [4]: apoptosis induction was not confirmed

— patent publication US20240207463A1, “RADIOACTIVE COMPLEX OF ANTI-EGFR ANTIBODY, AND RADIOPHARMACEUTICAL” (NIHON MEDI-PHYSICS CO., LTD., priority 2021, published 2024)
